Among the data in patent US20230242645A1 are Kd and EC50 (read off the curve) values, retold here.

pKd: −log10 of the molar value.

For assay [1], the target named is human PD-L1 extracellular domain, his tag (W315-hPro1.ECD.his) (human) (UniProt Q9NZQ7). Put plainly: SPR (Biacore T200), antibody captured on anti-human Fc, antigen as analyte, 25 °C. A general note: SPR reads the build-up and loss of mass on a sensor chip optically.
In assay [2] the target is mouse PD-L1 on 293F cells (WBP315.293F.mPro1.C1) (mouse) (UniProt Q9EP73). Description: FACS on mouse PD-L1 expressing 293F cells, FITC anti-human IgG.
Assay [3] concerns the target human PD-L1 on CHO-K1 cells (WBP315.CHO-K1.hPro1.C11) (human) (UniProt Q9NZQ7). Description: FACS on human PD-L1 expressing CHO-K1 cells, FITC anti-human IgG.
Assay [4] has as its target cynomolgus monkey PD-L1 on 293F cells (WBP315.293F.cPro1.2A) (cynomolgus monkey) (UniProt G7PSE7). Put plainly: FACS on cynomolgus PD-L1 expressing 293F cells, FITC anti-human IgG.

Sequence of human PD-L1 on CHO-K1 cells (WBP315.CHO-K1.hPro1.C11) (human) (Q9NZQ7 19-290): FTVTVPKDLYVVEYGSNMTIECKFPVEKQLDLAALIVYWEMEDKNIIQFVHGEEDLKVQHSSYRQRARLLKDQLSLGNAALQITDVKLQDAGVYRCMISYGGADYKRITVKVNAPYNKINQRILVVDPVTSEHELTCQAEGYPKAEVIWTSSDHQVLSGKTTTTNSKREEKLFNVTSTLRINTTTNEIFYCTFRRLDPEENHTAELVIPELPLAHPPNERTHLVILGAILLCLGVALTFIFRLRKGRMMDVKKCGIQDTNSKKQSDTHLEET
Sequence of cynomolgus monkey PD-L1 on 293F cells (WBP315.293F.cPro1.2A) (cynomolgus monkey) (G7PSE7 entry or part of it limits assumed): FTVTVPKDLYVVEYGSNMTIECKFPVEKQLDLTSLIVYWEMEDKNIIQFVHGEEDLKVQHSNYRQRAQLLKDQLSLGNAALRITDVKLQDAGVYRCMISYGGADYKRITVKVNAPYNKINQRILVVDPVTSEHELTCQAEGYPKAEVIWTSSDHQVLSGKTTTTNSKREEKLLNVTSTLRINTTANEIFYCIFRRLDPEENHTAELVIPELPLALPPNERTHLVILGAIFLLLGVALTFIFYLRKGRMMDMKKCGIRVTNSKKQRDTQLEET
Sequence of mouse PD-L1 on 293F cells (WBP315.293F.mPro1.C1) (mouse) (Q9EP73 19-290): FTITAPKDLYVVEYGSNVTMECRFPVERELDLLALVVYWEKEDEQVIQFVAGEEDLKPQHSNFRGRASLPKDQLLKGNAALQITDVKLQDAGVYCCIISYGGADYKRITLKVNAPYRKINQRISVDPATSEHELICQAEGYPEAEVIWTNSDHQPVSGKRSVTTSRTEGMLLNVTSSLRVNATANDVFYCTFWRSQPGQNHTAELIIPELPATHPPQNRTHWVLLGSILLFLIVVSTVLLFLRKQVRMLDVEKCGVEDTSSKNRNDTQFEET
Sequence of human PD-L1 extracellular domain, his tag (W315-hPro1.ECD.his) (human) (Q9NZQ7 19-238): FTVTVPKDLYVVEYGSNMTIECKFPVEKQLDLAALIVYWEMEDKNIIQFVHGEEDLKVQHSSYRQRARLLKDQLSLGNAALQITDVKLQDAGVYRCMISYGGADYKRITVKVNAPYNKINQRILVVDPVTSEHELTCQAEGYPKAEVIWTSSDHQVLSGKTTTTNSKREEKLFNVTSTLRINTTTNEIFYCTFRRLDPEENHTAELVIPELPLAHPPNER

What is called pKd is −log10 of the Kd, conventionally taken in molar units. By EC50 (read off the curve) is commonly meant the concentration needed to bring the measured effect to its halfway point. Substance “W315-BMK8.uIgG1K(RKNA) (Atezolizumab) (antibody)” showed a pKd in assay [1] of 10.22. Besides, the EC50 (read off the curve) in assay [2] is 2 nM; in assay [3], 0.1 nM; in assay [4], 2 nM.
